Measurements from paper PMC2195672.

Molecular target: HLA-A2 molecules immunoaffinity-purified from Jesthom cells, with added human β2-microglobulin (human (endogenous in Jesthom) | human)

HBV core 18-27, synthetic peptide
Kd: 40 nM
